Each block holds one binder with its values, some of them ahead of it.
Columns and labels:
[1] = molecular target: T1, LAG3 on PD1+LAG3+ human U2OS cells (Homo sapiens (Human), UniProt P18627 23-525); test: cellular PD1/LAG3 dimerization assay, 7500 PD1+LAG3+ U2OS cells a well, 20 h at 37 °C, chemoluminescence; the signal needs PD1 and LAG3 bound at once
T1 construct: also called cellular LAG3 (dimerization assay); not shown: subunit of the reporter enzyme fused to the cytosolic C-terminus
T1 sequence: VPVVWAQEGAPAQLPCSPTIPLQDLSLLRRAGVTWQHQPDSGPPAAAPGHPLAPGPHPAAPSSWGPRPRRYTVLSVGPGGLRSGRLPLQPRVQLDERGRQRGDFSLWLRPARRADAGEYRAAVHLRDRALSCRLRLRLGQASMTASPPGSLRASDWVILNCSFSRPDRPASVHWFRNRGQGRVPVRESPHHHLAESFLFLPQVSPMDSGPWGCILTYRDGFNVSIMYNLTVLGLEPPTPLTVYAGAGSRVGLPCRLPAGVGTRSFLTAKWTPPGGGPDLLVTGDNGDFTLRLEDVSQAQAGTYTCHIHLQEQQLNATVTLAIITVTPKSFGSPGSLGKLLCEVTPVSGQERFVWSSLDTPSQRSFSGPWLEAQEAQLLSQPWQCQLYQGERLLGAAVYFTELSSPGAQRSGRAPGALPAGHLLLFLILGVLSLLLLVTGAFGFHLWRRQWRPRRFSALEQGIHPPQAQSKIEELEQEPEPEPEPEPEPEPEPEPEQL
Description: (§1) Next, assay plates were equilibrated to room temperature and a substrate/buffer mix (PathHunterFlash detection reagent, Discoverx) was added and again incubated for 4h. For measuring chemoluminescence induced upon simultaneous binding and dimerization a SpectraMax L plate reader (Molecular Devices) was used.

[2] = molecular target: T2, PD1 on PD1+LAG3+ human U2OS cells (UniProt Q15116 25-288); test: as above
T2 sequence (Q15116 25-288): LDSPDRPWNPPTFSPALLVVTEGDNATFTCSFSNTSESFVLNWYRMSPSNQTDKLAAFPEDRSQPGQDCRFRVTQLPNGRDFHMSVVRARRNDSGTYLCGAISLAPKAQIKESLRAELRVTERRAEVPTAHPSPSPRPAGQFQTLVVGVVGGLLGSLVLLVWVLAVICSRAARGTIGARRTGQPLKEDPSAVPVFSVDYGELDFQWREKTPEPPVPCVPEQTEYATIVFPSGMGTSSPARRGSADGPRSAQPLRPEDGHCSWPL
Description: as §1

[3] = molecular target: T2, PD1 on PD1+LAG3+ human U2OS cells; test: cell-based or functional assay
[4] = molecular target: T1, LAG3 on PD1+LAG3+ human U2OS cells; test: cellular PD1/LAG3 dimerization assay on PD1+LAG3+ U2OS cells, chemoluminescence; the signal needs PD1 and LAG3 bound at once
Description: (§2) For this specific interaction, the cytosolic C-terminal ends of both receptors were individually fused to heterologous subunits of a reporter enzyme.
(§3) On the next day cell medium was discarded and replaced by fresh medium. Antibody or ligand dilutions were prepared and titrated amounts of indicated (bispecific) antibodies were added and incubated at 37° C. for 2 hours. Next, a substrate/buffer mix (e.g. PathHunterFlash detection reagent) was added and again incubated for 1h. For measuring chemoluminescence induced upon simultaneous binding and dimerization a Tecan infinite reader was used.

[5] = molecular target: T2, PD1 on PD1+LAG3+ human U2OS cells; test: as above
Description: as §2, §3

[6] = molecular target: T3, recombinant Human LAG-3 Fc Chimera Protein (R&D Systems, 2319-L3) (human, UniProt P18627 29-450); test: ELISA on coated Human LAG-3 Fc Chimera (rel. EC50)
T3 construct: Bought protein; also called huLAG3; not shown: Fc part of the chimera
T3 sequence: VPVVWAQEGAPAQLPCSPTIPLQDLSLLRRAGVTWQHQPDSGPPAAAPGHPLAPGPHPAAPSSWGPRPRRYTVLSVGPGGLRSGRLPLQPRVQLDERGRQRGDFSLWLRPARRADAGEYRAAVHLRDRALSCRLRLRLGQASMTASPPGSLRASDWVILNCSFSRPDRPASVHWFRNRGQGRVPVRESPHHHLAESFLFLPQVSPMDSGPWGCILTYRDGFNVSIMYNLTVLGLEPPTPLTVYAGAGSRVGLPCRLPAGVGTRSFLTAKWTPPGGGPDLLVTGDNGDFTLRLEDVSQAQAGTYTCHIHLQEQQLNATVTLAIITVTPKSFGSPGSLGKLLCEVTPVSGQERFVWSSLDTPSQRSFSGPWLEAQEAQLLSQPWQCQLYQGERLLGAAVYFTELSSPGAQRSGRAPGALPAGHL
Summary of the method: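 Wells blocked 1 h at RT in PBS + 2% BSA + 0.05% Tween 20; bound antibody detected with goat anti-human Ig κ-HRP (1:2000, 1 h RT), then TMB substrate for 2-10 min. Absorbance read at 370/492 nm.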

[7] = molecular target: T4, LAG3 on cells (recombinant CHO cells expressing Lag3) (human, UniProt P18627 29-525); test: cell-based or functional assay
T4 sequence: T1 sequence

[8] = molecular target: full-length human PD1 on cells (human, UniProt Q15116 25-288); test: cell-based or functional assay
full-length human PD1 on cells, sequence (Q15116 25-288 limits assumed): as the sequence (Q15116 25-288) above

EC50 (read off the curve) [1]: ~0.05 nM
EC50 (read off the curve) [2]: ~0.05 nM
EC50 [pM], dimerization binding assay (chemoluminescence) [3]: 41 pM
EC50 (read off the curve) [4]: ~0.02 µg/mL
EC50 (read off the curve) [5]: ~0.02 µg/mL
EC50 [6]: 0.18 nM
EC50 [nM], PD-1 & LAG-3 combo reporter assay (NFAT luciferase) [7]: 3.1 nM
EC50 [nM], PD-1 & LAG-3 combo reporter assay (NFAT luciferase) [8]: 3.1 nM
B1: PD1/LAG3 0927 (bispecific antibody, human IgG1, kappa, L234A L235A)
heavy 1: not shown
heavy 2: EVQLLESGGGLVQPGGSLRLSCAASGFIFDDYTMNWVRQAPGKGLEWVAVISWDGGGTYYTDSVKGRFTISRDDFKNTLYLQMNSLRAEDTAVYYCAKGLTDTTLYGSDYWGQGTLVTVSSASTKGPSVFPLAPSSKSTSGGTAALGCLVEDYFPEPVTVSWNSGALTSGVHTFPAVLQSSGLYSLSSVVTVPSSSLGTQTYICNVNHKPSNTKVDEKVEPKSCDKTHTCPPCPAPEAAGGPSVFLFPPKPKDTLMISRTPEVTCVVVDVSHEDPEVKFNWYVDGVEVHNAKTKPREEQYNSTYRVVSVLTVLHQDWLNGKEYKCKVSNKALGAPIEKTISKAKGQPREPQVCTLPPSRDELTKNQVSLSCAVKGFYPSDIAVEWESNGQPENNYKTTPPVLDSDGSFFLVSKLTVDKSRWQQGNVFSCSVMHEALHNHYTQKSLSLSPGK
light 1: EVQLLESGGGLVQPGGSLRLSCAASGFSFSSYTMSWVRQAPGKGLEWVATISGGGRDIYYPDSVKGRFTISRDNSKNTLYLQMNSLRAEDTAVYYCVLLTGRVYFALDSWGQGTLVTVSSASVAAPSVFIFPPSDEQLKSGTASVVCLLNNFYPREAKVQWKVDNALQSGNSQESVTEQDSKDSTYSLSSTLTLSKADYEKHKVYACEVTHQGLSSPVTKSFNRGEC
light 2: not shown
notes: 1+1 CrossMAb Vh-VL, knobs into holes, IgG1 PGLALA

EC50 [pM], dimerization binding assay (chemoluminescence) [3]: 76 pM
EC50 (read off the curve) [4]: ~0.02 µg/mL
EC50 (read off the curve) [5]: ~0.02 µg/mL
EC50 [6]: 0.07 nM
B2: PD1/LAG3 0799 (bispecific antibody, human IgG1, kappa, L234A L235A)
heavy 1: not shown
heavy 2: EVQLVESGGGLVQPGGSLRLACAASGFTFSDYAMSWVRQAPGKGLEWVSGIDNSGYYTYYTDSVKGRFTISRDDVKNTLYLQMNSLRAEDTAVYLCTKTHSGLIVNDAFDIWGQGTMVTVSSASTKGPSVFPLAPSSKSTSGGTAALGCLVEDYFPEPVTVSWNSGALTSGVHTFPAVLQSSGLYSLSSVVTVPSSSLGTQTYICNVNHKPSNTKVDEKVEPKSCDKTHTCPPCPAPEAAGGPSVFLFPPKPKDTLMISRTPEVTCVVVDVSHEDPEVKFNWYVDGVEVHNAKTKPREEQYNSTYRVVSVLTVLHQDWLNGKEYKCKVSNKALGAPIEKTISKAKGQPREPQVCTLPPSRDELTKNQVSLSCAVKGFYPSDIAVEWESNGQPENNYKTTPPVLDSDGSFFLVSKLTVDKSRWQQGNVFSCSVMHEALHNHYTQKSLSLSPGK
light 1: B1 light 1
light 2: not shown
notes: as for B1
